# PMC5943153 (Molecular microbiology, 2018)
# T1: HP0221-T25 (NifU) (Helicobacter pylori strain 26695, UniProt O25009 2-326)
# T1 sequence (looked up): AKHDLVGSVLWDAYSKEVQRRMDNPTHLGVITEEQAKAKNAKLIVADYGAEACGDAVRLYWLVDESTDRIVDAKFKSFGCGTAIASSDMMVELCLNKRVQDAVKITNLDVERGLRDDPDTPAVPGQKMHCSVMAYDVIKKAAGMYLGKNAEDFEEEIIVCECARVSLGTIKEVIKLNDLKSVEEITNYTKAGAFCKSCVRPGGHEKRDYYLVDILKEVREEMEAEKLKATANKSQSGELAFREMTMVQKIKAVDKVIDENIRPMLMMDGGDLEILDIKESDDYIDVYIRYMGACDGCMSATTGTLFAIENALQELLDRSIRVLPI
# T2: T25-HP1492 (Nfu) (Helicobacter pylori strain 26695, UniProt O26025 2-89)
# T2 sequence (looked up): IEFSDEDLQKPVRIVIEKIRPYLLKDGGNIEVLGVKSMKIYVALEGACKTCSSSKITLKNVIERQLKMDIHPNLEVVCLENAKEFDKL
# T3: T25-HP0221 (NifU) (Helicobacter pylori strain 26695, UniProt O25009 2-326)
# T3 sequence (looked up): T1 sequence (looked up)
# B1: T18-HP0585 (natural protein, Helicobacter pylori strain 26695, UniProt O25307 2-218, looked up)
# chain: KMGLKRAKTHQKAQQIKELLLKHYPNQTTELRHKNPYELLVATILSAQCTDARVNQITPKLFEKYPSVNDLALASLEEVKEIIKSVSYFNNKSKHLISMAQKVVRDFKGVIPSTQKELMSLDGVGQKTANVVLSVCFDANCIAVDTHVFRATHRLGLSNAKDPIKTEEELSDLFKDNLSKLHHALILFGRYTCKAKNPLCGACFLKEFCVSKASFKA
# B2: T18-HP0734 (natural protein, Helicobacter pylori strain 26695, UniProt O25434 2-439, looked up)
# chain: QVKENKQLCLISLGCSKNLVDSEVMLGKLYNYTLTNDAKSADVILINTCGFIESAKQESIQTILNAAKDKKEGAILIASGCLSERYKDEIKELIPEVDIFTGVGDYDKIDIMIAKKQNQFSEQVFLSEHYNARIITGSSVHAYVKISEGCNQKCSFCAIPSFKGKLQSRELDSILKEVENLALKGYTDMTFIAQDSSSFLYDKGQKDGLIQLIRAIDKQQALKSARILYLYPSSTTLELIGAIESSPIFQNYFDMPIQHISDSMLKKMRRNSSQAHHLKLLDAMKQVKESFIRSTIIVGHPEENESEFEELSAFLDEFQFDRLNIFAFSAEENTHAYSLEKVPKKTINARIKALNKIALKHQNHSFKALLNKPIKALVENKEGEYFYKARDLRWAPEVDGEILINDSELTTPLKPGHYTIAPSEFKDNILLAKVLSPF
# B3: T18-HP0132 (natural protein, Helicobacter pylori strain 26695, UniProt P56072 2-455, looked up)
# chain: ASFSILSIFKIGVGPSSSHTIGPMEAGARFCESLKGILEQVVRVQITLHGSLALTGKGHLSDEAVLIGLHGIYANELEVTTKKALLHEALENKVLKLANQHHIPFDYAKDLIFDNKPLTRHQNALILKAFNSKNEVLKEETYYSVGGGFVYTEKELDNLSEEDGNESIAYDFSSAKELLELCQKHQKSIAEIVRLRENALKNHPDATMVKIYHAMLECYDNGANSKERYLPGSLKVTRLAPSIKTRLEKHPTSGKDPLALIDYISLYARAIAEENASGGKVVTAPTNGACAVVPSVLLYAKNHLFENLSQKAINDFLLTSAAIGYLYKKNASLSGAEAGCQAEIGVASSMAAGGLAHLCQATTQQVLIASEIAMEHHLGLTCDPVGGLVQIPCIERNVLGAIKAISASKLALEDEYKPKVSLDEVIATMYATGKDMNEKYKETSLGGLAKTLKC
# B4: T18-HP0568 (natural protein, Helicobacter pylori strain 26695, UniProt O25292 2-255, looked up)
# chain: PLELFEKVCKEVAPLTQMITLHVLGDPCKLKNLNHYLSTARRFSLKVDLVTSGVYLHDFETLLQDVIYQISISLDAGLDHRNKLNQHRYIQKILEFCRYKCEKNSEVFLNLRIQDSTLDKHQNLIKPFLESFECVSLEGLKTQGRARLFKKSFLNIQKTFKWPSLNAQNPLNQKSKIPYCYGLIKQIAILSNGVVVPCCMDTQANISLGDLNHTPLKDVLKSQKAMAIKTHFLKGEALELLCQNCSYPLIRYKK
# B5: T18-HP1089 (natural protein, Helicobacter pylori strain 26695, UniProt O25721 2-778, looked up)
# chain: NLEKLFLEKTPLFVFSSTRRLKHFYLEQGEGFLPNAMSMGNFFEQAFYIPNKKKIPNSARLILMIDTIKAIAKEKKSILEGLLLFENSFLGYLESTSFLFDLFDELSSACIKLNELSSKDIYLDYEKHLEVLEMIYDRYIKKLEGLGFYDKIMQEKPAILKEFFEHFSSIEWHLDGFMSVFERQCLLEAAELVPITLHLSCDKYNQKFLEFLNLKLETDCDYSIDFKTQKILSQTPKRQKIEPKLYANSSYLKQSALVLQTIEEYLQKDNDPNKMAIITPNADFLPFLKLLDKNNNLNFAMGLGAKNSPYYTELVKILEDLETSDLDLSGSALLDLENITLALLEQQSSKEKAPLKEAHSQIMHQYHLLKDTLKNYSLKDLLHLYLQEFEANFRLDDSSGGKIRVMDTLETRGMQFDKIVIVDFNETCVPSLKDCDLFLNSALRKSLNLPTLLDKKNLQKHYYYQLFKNSKEITLSYIESETSKASNMLLELNLHIEPIKDAYTLFAPSPLKDYQEEEIKAAIPKDFSFSASSLNAFLTCKRRFYYHYIKRFKESPKDENNSAVGSLLHELLKEAYEKDKTPHALEERLIWLLETRENITPKERLDTLVVLKKIQAFYKKERERFNAEITILDLEKSFETIIQGVIFKGRIDRIDKTADNEIILLDYKFKSDLKLDSMSKTQRGGLSPIEIAQISTDYQMAIYAFALKNLGYKEPIKAFFYDLRKGELLEEEELILQAKMDHLEFSLIPKLKQEIDFEKTLEVKDCEYCSFKDMCNR
# B6: T18-HP0277 (natural protein, Helicobacter pylori strain 26695, UniProt O25054 2-84, looked up)
# chain: SLLVNDECIACDACREECPSEAIEEGDPIYNIDPDRCTECYGYDDDEPRCVSVCPVDAILPDPNNAESKEELKYKYESLKEQD
# B7: T18-HP0221 (natural protein, Helicobacter pylori strain 26695, UniProt O25009 2-326, looked up)
# chain: T1 sequence (looked up)
# B8: T18-HP1428 (natural protein, Helicobacter pylori strain 26695, UniProt O25970 2-357, looked up)
# chain: KASIYDFTLKELSQLLKPSFRAKQLYLWLYAKYKTSFKDMQNNFSKDFIAYLEREFALRTIEITHVRESVDGSKKYLFKSLRDNHTFEAVLLKMKDKKIDAETNAILEREKYTVCVSCQIGCQVGCSFCFTQKGGFVRNLKASEIIQQALLIKEDNNLPLEKALNIVFMGMGEPLNNLDEVCKAIEIFNTGMQISPKRITISTSGVADKIPILAGKNLGVQLAISLHAVDDKTRSSLMPLNKKYNIECVLNEVRKWPLEQRKRVMFEYLLIKDLNDSLDCAKKLLKLLNGIKSKVNLILFNPHEGSKFERPSLENARMFADFLNSKGLLCTIRESKALDIEAACGQLREKKLSQQI
# B9: T18-HP0666 (natural protein, Helicobacter pylori strain 26695, UniProt O25377 2-433, looked up)
# chain: NENINENIFEEVGDACVKCAKCVPGCTIYRIHKDEATSPRGFLDLMRLNAQNKLQLDTNLKHLLETCFLCTACVEICPFHLPIDTLIEKAREKIAQKHGIAWYKKSYFSLLKNRKKMDRVFSTAHFLAPCVFKQVGDSLEPRAVFKGLFKRFKKSALPPLNQKSFLQKHAEMKLLENPIQKVAIFIGCLSNYHYQQVGESLLYILEKLNIQAIIPKQECCSAPAYFTGDKDTTLFLVKKNIEWFESYLDKVDAIIVPEATCASMLINDYYKVFLGEKDKDLYVKRLEKITPKIYLASVFLEKHTPLKSLLEKIPKGKKETITYHNPCHAKKTLNAHKEVRNLLNLHYEIKEMPDNCCGFGGITMQTQKAGFSLKVGLLRAKEIIDTKAAILSAECGACHMQLNNALKSLDDPNTPPFLHPLELIAKALKSAE
# B10: T18-HP1540 (natural protein, Helicobacter pylori strain 26695, UniProt O26065 2-167, looked up)
# chain: ADIQRRDFLGMSLASVTAIGAIASLVAMKKTWDPLPSVVSAGFTTIDVANMQEGQFSTVEWRGKPVYILKRSKKEGFNEKRDFKVGESVFTTAIQICTHLGCIPTYQDEEKGFLCPCHGGRFTSDGVNIAGTPPPRPFDIPPFKIEGTKITFGEAGAEYKKMMAKA
# B11: T18-HP1268 (natural protein, Helicobacter pylori strain 26695, UniProt O25858 2-220, looked up)
# chain: AKQEYKQLPKRAEVHSATEQFKDTVKTSLGLDLFKGLGLTIKEFFSPSVTIHYPMEQLPLSPRYRAVHNLQRLLDSGSERCIGCGLCEKICTSNCIRIITHKGEDNRKKIDSYTINLGRCIYCGLCAEVCPELAIVMGNRFENASTQRSQYGSKSEFLTSEQDAKNCSHAEFLGFGAVSPNYNERMQATPLDYVQEPSKEESQEETPTNPESNKGDENV
# Legend:
# Experiment in all cases: two-hybrid
# HP0221-T25 (NifU) = target: T1, HP0221-T25 (NifU)
# T25-HP1492 (Nfu) = target: T2, T25-HP1492 (Nfu)
# T25-HP0221 (NifU) = target: T3, T25-HP0221 (NifU)
# T25-HP0220 (NifS) = T25-HP0220 (NifS) (Helicobacter pylori strain 26695, UniProt O25008 2-387)
binder,measurement,setting,value
B1,growth OD595 in M63-maltose,HP0221-T25 (NifU),0.15 OD595
same,growth OD595 in M63-maltose,T25-HP1492 (Nfu),0.06 OD595
same,growth OD595 in M63-maltose,T25-HP0221 (NifU),0.21 OD595
B2,growth OD595 in M63-maltose,HP0221-T25 (NifU),0.48 OD595
same,growth OD595 in M63-maltose,T25-HP1492 (Nfu),0.12 OD595
same,growth OD595 in M63-maltose,T25-HP0221 (NifU),0.4 OD595
B3,growth OD595 in M63-maltose,HP0221-T25 (NifU),0.14 OD595
same,growth OD595 in M63-maltose,T25-HP1492 (Nfu),0.27 OD595
same,growth OD595 in M63-maltose,T25-HP0221 (NifU),0.21 OD595
B4,growth OD595 in M63-maltose,HP0221-T25 (NifU),0.36 OD595
same,growth OD595 in M63-maltose,T25-HP1492 (Nfu),0.14 OD595
same,growth OD595 in M63-maltose,T25-HP0221 (NifU),0.13 OD595
B5,growth OD595 in M63-maltose,HP0221-T25 (NifU),0.29 OD595
same,growth OD595 in M63-maltose,T25-HP0221 (NifU),0.26 OD595
B6,growth OD595 in M63-maltose,T25-HP0220 (NifS),0.3 OD595
same,growth OD595 in M63-maltose,T25-HP1492 (Nfu),0.4 OD595
B7,growth OD595 in M63-maltose,T25-HP0220 (NifS),0.12 OD595
same,growth OD595 in M63-maltose,T25-HP1492 (Nfu),0.08 OD595
B8,growth OD595 in M63-maltose,HP0221-T25 (NifU),0.27 OD595
same,growth OD595 in M63-maltose,T25-HP1492 (Nfu),0.08 OD595
same,growth OD595 in M63-maltose,T25-HP0221 (NifU),0.15 OD595
B9,growth OD595 in M63-maltose,HP0221-T25 (NifU),0.11 OD595
same,growth OD595 in M63-maltose,T25-HP0221 (NifU),0.48 OD595
B10,growth OD595 in M63-maltose,HP0221-T25 (NifU),0.44 OD595
same,growth OD595 in M63-maltose,T25-HP1492 (Nfu),0.17 OD595
same,growth OD595 in M63-maltose,T25-HP0221 (NifU),0.24 OD595
B11,growth OD595 in M63-maltose,HP0221-T25 (NifU),0.22 OD595
same,growth OD595 in M63-maltose,T25-HP1492 (Nfu),0.18 OD595
same,growth OD595 in M63-maltose,T25-HP0221 (NifU),0.33 OD595
